Measured values taken from US9226969B2, “Salt form of a multi-arm polymer-drug conjugate” (priority 2009, dated 2016).
Where two headings read alike, the source gives them in different places.

What was measured:
[1] = 40° C. and 75% relative humidity, over 3 months
Procedure: Compositions containing varying amounts of protonated irinotecan, as well as differing in the amount of TFA versus HCl salt were examined.
Samples were taken and analyzed on a periodic basis over the course of the studies.
FIG. 2 and FIG. 3 show another set of data obtained from the sample containing >99% HCl salt (<1% free base, squares) and a sample consisting of 86% total salts (14% free base, diamonds) that were stored at 40° C. and 75% relative humidity. […] The increase in smaller PEG species is indicative of decomposition of the PEG backbone to provide multiple PEG species.

[2] = Transesterification of irinotecan-containing PEG species; conditions: K2CO3 in CH3OH, 20° C., after 45 minutes
Procedure: (§1) Experiments were performed to determine the fate of the irinotecan-containing PEG species in 4-arm-PEG-Gly-Irino-20K mixed TFA.chloride salt under transesterification (K2CO3 in CH3OH, 20° C.) and aqueous hydrolysis (pH 10, 20° C.) conditions.

[3] = Aqueous hydrolysis at pH 10; conditions: pH 10, 20° C., within 24 hours
Procedure: as §1

| Substance | increase in free irinotecan (stability with respect to hydrolysis) [1] | increase in smaller PEG species (PEG backbone decomposition) ([1]; listed as HCl salt) | increase in smaller PEG species (PEG backbone decomposition) ([1]; listed as hydrochloride salt) | free irinotecan (after 4 weeks at 40° C.) [%] | total product related species (after 4 weeks at 40° C.) [%] | free irinotecan (initial value, before storage) [%] | total product related species (initial value, before storage) [%] | transesterification reaction completion [2] [%] | aqueous hydrolysis reaction completion [3] [%] |
| --- | --- | --- | --- | --- | --- | --- | --- | --- | --- |
| Pentaerythritolyl-4-Arm-(PEG-1-Methylene-2Oxo-Vinylamino Acetate Linked-Irinotecan)-20K [listing 1 of 2 here] | greater hydrolytic stability than either the free base or mixed TFA.hydrochloride salt | more prone to PEG backbone decomposition than the mixed salt sample containing 14% free base | greater degree of backbone degradation | 1.25 | 97.0 | 0.4 | 98.7 |  |  |
| Pentaerythritolyl-4-Arm-(PEG-1-Methylene-2Oxo-Vinylamino Acetate Linked-Irinotecan)-20K [listing 2 of 2 here] |  |  |  |  |  |  |  | > 99 | > 99 |
